Consider 18 molecules from patent US20210269542A1 (POTENZA THERAPEUTICS, published 2021).

What is called Kd is the constant that tells how readily two partners part at equilibrium.

Changes are numbered by the printed parent chain. In names and notes the source's numbering stands.

B1: ABP39 (antibody, human IgG1, kappa, N297A, V domains shown)
VH: QVQLQESGPGLVKPSETLSLTCAVSGYSISSGAGWGWIRQPPGKGLEWIGLIVHSGSTYYNPSLKSRVTISVDTSKNQFSLKLSSVTAADTAVYYCVLESVRGYGDYGGHHAFDIWGQGTMVTVSS
VL: DIQMTQSPSSLSASVGDRVTITCRASQSISSYLNWYQQKPGKAPKLLIYAADSLQSGVPSRFSGSGSGTDFTLTISSLQPEDFATYYCQQEYNTPPTFGGGTKVEIKR
notes: IgG1 N297A, bivalent; also called non-TM ABP corresponding to ABP6
B2: ABP41 (antibody, human IgG1, kappa, N297A, V domains shown)
VH: B1 VH with G32E, A33Y, G34M, V53Y, S57K, V97A, L98R, S100A, V101D
VL: B1 VL with R24G, S31T, A50S, D52S, Q55E, T97S
notes: IgG1 N297A, bivalent; also called non-TM ABP corresponding to ABP8
B3: ABP38 (antibody, human IgG1, kappa, N297A, V domains shown)
VH: B1 VH with L46P
VL: B1 VL with Q27K, S30D, D52S
notes: IgG1 N297A, bivalent; also called non-TM ABP corresponding to ABP4/5
B4: ABP40 (antibody, human IgG1, kappa, N297A, V domains shown)
VH: B1 VH with G32E, A33Y, G34M, V53Y, S57K, V97A, L98R, S100A, V101D
VL: B1 VL with S30N, D52S, Q55D
notes: IgG1 N297A, bivalent; also called non-TM ABP corresponding to ABP7
B5: ABP35 (antibody, human IgG1, kappa, N297A, V domains shown)
VH: B1 VH with A33L, L51G, V53Y, H54E, V97A, L98H, S100R
VL: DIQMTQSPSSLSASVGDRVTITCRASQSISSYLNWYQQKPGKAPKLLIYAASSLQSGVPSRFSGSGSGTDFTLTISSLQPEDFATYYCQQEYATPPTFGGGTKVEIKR
notes: IgG1 N297A, standard bivalent format; also called ABP35 IgG1; non-TM ABP corresponding to ABP1
B6: ABP37 (antibody, human IgG1, kappa, N297A, V domains shown)
VH: B1 VH
VL: B1 VL with D52S, Q55K, S56Y
notes: IgG1 N297A, bivalent; also called non-TM ABP corresponding to ABP3
B7: ABP36 (antibody, human IgG1, kappa, N297A, V domains shown)
VH: QVQLQESGPGLVKPSQTLSLTCTVSGGSISSGGAVWSWIRQHPGKGLEWIGGIAYSGSTYYNPSLKSRVTISVDTSKNQFSLKLSSVTAADTAVYYCADENVRGYGDYGGHHAFDIWGQGTMVTVSS
VL: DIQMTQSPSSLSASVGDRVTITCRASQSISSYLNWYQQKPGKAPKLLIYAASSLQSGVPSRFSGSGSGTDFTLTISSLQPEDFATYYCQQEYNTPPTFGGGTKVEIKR
notes: IgG1 N297A, bivalent; also called non-TM ABP corresponding to ABP2
B8: ABP13 (antibody, human IgG1, kappa, N297A, V domains shown)
VH: QVQLVQSGAEVKKPGSSVKVSCKASGGTFSRGAISWVRQAPGQGLEWMGGIIPIEGTAYYAQKFQGRVTITADESTGTAYMELSSLRSEDTAVYYCARQSDYGLPRGMDVWGQGTTVTVSS
VL: DIQLTQSPSSVSASVGDRVTITCRASQGISSWLAWYQQKPGKAPKLLIYGASSLQSGVPSRFSGSGSGTDFTLTISSLQPEDFATYYCQQASLFPPTFGGGTKVEIKR
B9: ABP11 (antibody, human IgG1, kappa, N297A, V domains shown)
VH: QVQLVQSGAEVKRPGSSVKVSCKASGGTFSSYYISWVRQVPGQGLEWMGGIIPVPGTANYAQKFQGRVTITADESTSTAYMELSSLRSEDTAVYYCARAGGGYARGDHYYGMDVWGQGTTVTVSS
VL: not shown
B10: ABP12 (antibody, human IgG1, kappa, N297A, V domains shown)
VH: B9 VH with R13K, V40A, G44R
VL: not shown
B11: ABP14 (antibody, human IgG1, kappa, N297A, V domains shown)
VH: QVQLVQSGAEVKKPGSSVKVSCKASGGTFSSYAISWVRQAPGQGLEWMGGIIPISGFTNYAQKFQGRVTITADESTSTAYMELSSLRSEDTAVYYCAREGGHYYSGWPYWGQGTLVTVSS
VL: EIVLTQSPATLSLSPGERATLSCRASQSVSSYLAWYQQKPGQAPRLLIYDASNRATGIPARFSGSGSGTDFTLTISSLEPEDFAVYYCQQRLVFPPTFGGGTKVEIKR
B12: ABP17 (antibody, human IgG1, kappa, N297A, V domains shown)
VH: QVQLVQSGAEVKKPGSSVKVSCKASGGTFVRYAISWVRQAPGQGLEWMGGIIPIFGEAQYAQRFQGRVTITADESTSTAYMELSSLRSEDTAVYYCAREGYYYGALPYWGQGTLVTVSS
VL: B11 VL with R91H, L92S
B13: ABP18 (antibody, human IgG1, kappa, N297A, V domains shown)
VH: B12 VH with R63K, Q65R, V68A
VL: B11 VL with R91H, L92S
B14: ABP16 (antibody, human IgG1, kappa, N297A, V domains shown)
VH: B11 VH with R67K
VL: B11 VL
B15: ABP15 (antibody, human IgG1, kappa, N297A, V domains shown)
VH: B11 VH with G44R
VL: B11 VL
B16: ABP48 (antibody, human IgG1, kappa, N297A, V domains shown)
VH: B1 VH with G32E, A33Y, G34M, V53Y, S57K, V97A, L98R, E99D, V101G
VL: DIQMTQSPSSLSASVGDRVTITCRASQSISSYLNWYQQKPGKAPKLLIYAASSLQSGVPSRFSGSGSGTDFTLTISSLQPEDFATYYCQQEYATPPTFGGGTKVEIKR
notes: IgG1 N297A, H1H2-optimized, non-TM
B17: ABP42 (antibody, human IgG1, kappa, N297A, V domains shown)
VH: QLQLQESGPGLVKPSETLSLTCTVSGGSISSSSYAWGWIRQPPGKGLEWIGSIYYSGSTYYNPSLKSRVTISVDTSKNQFSLKLSSVTAADTAVYYCARDSGRGYGDYGGHHAFDIWGQGTMVTVSS
VL: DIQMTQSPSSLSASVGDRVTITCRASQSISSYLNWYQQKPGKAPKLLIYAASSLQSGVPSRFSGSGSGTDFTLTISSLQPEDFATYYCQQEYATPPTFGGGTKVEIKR
notes: IgG1 N297A, non-optimized, non-TM
B18: ABP44 (antibody, human IgG1, kappa, N297A, V domains shown)
VH: B9 VH with R13K, V40A
VL: not shown
notes: as for B16

The target in the first test is T1, human GITR expressed on cells (human, UniProt Q9Y5U5 26-241).
T1 sequence: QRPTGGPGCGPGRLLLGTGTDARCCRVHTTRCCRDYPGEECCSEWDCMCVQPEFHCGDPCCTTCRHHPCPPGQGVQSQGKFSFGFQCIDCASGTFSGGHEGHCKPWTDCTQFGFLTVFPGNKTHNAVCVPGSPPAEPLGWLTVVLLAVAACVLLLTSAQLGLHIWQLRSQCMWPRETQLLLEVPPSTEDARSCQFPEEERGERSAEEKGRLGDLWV
Put plainly: cell-based or functional assay.
With B1, the “Average EC50 in human HT1080 (IL-8 induction)” value (“Average EC50 in human HT1080” below) came to 0.44 nM.
Consider B2, for which the “Average EC50 in human HT1080” value was 0.44 nM.
Take B3: the “Average EC50 in human HT1080” value worked out at 0.33 nM.
On to B4, for which the “Average EC50 in human HT1080” value was found to be 0.34 nM.
Still for that read-out and setting: the same measure for B5: 0.88 nM; for B6: 0.19 nM.
Still for that read-out and setting: the same measure for B7: 0.58 nM.

The target of a further test is T2, cynomolgus monkey GITR expressed on HT1080 cells (cynomolgus monkey).
T2 chain: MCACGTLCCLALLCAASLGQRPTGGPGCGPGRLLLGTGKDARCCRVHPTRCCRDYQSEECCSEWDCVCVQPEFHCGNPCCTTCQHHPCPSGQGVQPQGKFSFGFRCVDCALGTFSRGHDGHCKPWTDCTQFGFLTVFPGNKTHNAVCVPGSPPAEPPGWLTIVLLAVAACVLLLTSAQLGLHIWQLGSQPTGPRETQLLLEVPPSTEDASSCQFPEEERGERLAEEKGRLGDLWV
Put plainly: cell-based or functional assay.
Regarding B1, the “Average EC50 in cynomolgus HT1080 (IL-8 induction)” value (“Average EC50 in cynomolgus HT1080” below) amounted to 2.3 nM.
On the same count and under the same terms, next, B2: 2 nM; B3: 14.3 nM.
With B4, the “Average EC50 in cynomolgus HT1080” value came to 1.1 nM.
On the same count and under the same terms, next, B5: 2 nM; B6: 1.7 nM.
As for B7, the “Average EC50 in cynomolgus HT1080” value came out at 8.8 nM.

The target in a further test is T3, cyno GITR-Fc (cynomolgus monkey).
T3 construct: also called cGITR; cynomolgus GITR
T3 chain: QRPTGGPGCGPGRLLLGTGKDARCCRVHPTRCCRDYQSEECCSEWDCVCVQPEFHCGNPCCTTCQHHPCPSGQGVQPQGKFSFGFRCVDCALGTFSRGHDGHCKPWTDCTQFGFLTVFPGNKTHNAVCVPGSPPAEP
Put plainly: BLI Octet RED384, ABP on AHQ sensor, 100 nM antigen, single concentration.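 Also: association and dissociation each tracked over 180 s, with dissociation run in antigen-free buffer.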 For orientation: BLI is a label-free optical method that tracks binding on a fibre tip over time.
Protocol: (§1) The sensors were quenched by dipping into an unrelated human IgG1 antibody to prevent non-specific binding of GITR-Fc antigens to the sensor. The sensors were equilibrated in assay buffer for 30 minutes. Baseline was established by dipping the sensors into assay buffer for 60 seconds. Association was monitored for 180 seconds in 100 nM of recombinant antigens, and dissociation was followed for 180 seconds in buffer alone. KD was determined using the kinetic function of the FORTEBIO® Analysis Software using a 1:1 binding model.
In turn, B8 gave a dissociation constant (Kd) of 6.4 nM.
Take B9: the Kd stood at 8.5 nM.
Still for that read-out and setting: next, B10: 7.9 nM; B11: 5.9 nM; B12: 4.6 nM.
Still for that read-out and setting: next, B13: 8.4 nM; B14: 5.4 nM.
For B15, the equilibrium dissociation constant (Kd) amounted to 5.2 nM.
Still for that read-out and setting: next, B1: 8.2 nM.
The molecule B2 yielded a Kd of 6.9 nM.
Take B16: the binding result is “no binding (tested: 100 nM)”.
As for B3, the Kd amounted to 11.1 nM.
For B4, binding was characterised by a dissociation constant (Kd) of 4.9 nM.
Consider B5, for which binding was characterised by a dissociation constant (Kd) of 5.7 nM.
Still for that read-out and setting: the same measure for B6: 8.1 nM; for B7: 7.5 nM.
For B17, the binding result was “no binding (tested: 100 nM)”.

The target of another test is T4, human GITR-Fc (human, UniProt Q9Y5U5 26-162).
T4 construct: also called recombinant hGITR; wild type human GITR-Fc
T4 sequence: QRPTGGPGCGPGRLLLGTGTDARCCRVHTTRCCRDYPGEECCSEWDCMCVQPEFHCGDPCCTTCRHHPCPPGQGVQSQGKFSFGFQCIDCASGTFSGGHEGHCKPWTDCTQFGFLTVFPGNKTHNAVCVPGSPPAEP
Described as above.
Protocol: as §1
B8 had a Kd of 5.5 nM.
For B18, the Kd worked out at 46.5 nM.
Still for that read-out and setting: next, B9: 3.1 nM.
Same read-out and setting: the same measure for B10: 2.8 nM; for B11: 2.8 nM; for B12: 4.2 nM.
B13 had a Kd of 4 nM.
On to B14, for which the Kd came to 2.9 nM.
The same measure, in the same setting: the same measure for B15: 3.3 nM; for B1: 0.7 nM; for B2: 2.3 nM.
In the case of B16, the affinity, expressed as Kd, was 14.8 nM.
For B3, the Kd stood at 0.6 nM.
The same measure, in the same setting: the same measure for B4: 2.2 nM; for B5: 1.5 nM.
B6 came in with a Kd of 0.7 nM.
The molecule B7 came in with a Kd of 1.4 nM.
Still for that read-out and setting: the same measure for B17: 11.5 nM.

In the next test the target is T1, human GITR expressed on cells. Put plainly: cell-based or functional assay. The source holds these as a separate data set.
B18: the “EC50 in human HT1080 (IL-8 induction), n = 2” value was 4.2 nM.
Still for that read-out and setting: the same measure for B16: 0.8 nM.
On the same count and under the same terms, next, B17: 17.8 nM.

The target in the next test is T2, cynomolgus monkey GITR expressed on …. Put plainly: cell-based or functional assay. This is another data set of the same source.
Consider B18, for which the “EC50 in cynomolgus HT1080 (IL-8 induction), n = 1” value was determined as 28 nM.

In the next test the target is T1, human GITR expressed on cells. Put plainly: cell-based or functional assay. The source holds these as a separate data set.
On to B8, for which the “EC50 in human HT1080 (IL-8 induction)” value was found to be 7.8 nM.
On the same count and under the same terms, next, B9: 3.9 nM; B10: 3.5 nM; B11: 0.6 nM.
The same measure, in the same setting: the same measure for B12: 5.3 nM; for B13: 2.1 nM; for B14: 0.6 nM.
Still for that read-out and setting: next, B15: 0.6 nM.

The target of the next test is T2, cynomolgus monkey GITR expressed on …. Put plainly: cell-based or functional assay. The source holds these as a separate data set.
For B8, the “EC50 in cynomolgus HT1080 (IL-8 induction)” value was found to be 15 nM.
B9: the “EC50 in cynomolgus HT1080 (IL-8 induction)” value is 21.6 nM.
Turning to B10, the “EC50 in cynomolgus HT1080 (IL-8 induction)” value came to 28.4 nM.
Regarding B11, the “EC50 in cynomolgus HT1080 (IL-8 induction)” value turned out to be 4.1 nM.
Still for that read-out and setting: next, B12: 8.4 nM; B13: 13.2 nM.
Still for that read-out and setting: next, B14: 3.8 nM; B15: 4.5 nM.
